Experimental data: patent US20160340704A1, “METHOD OF MAKING A BENZYLISOQUINOLINE ALKALOID (BIA) METABOLITE, ENZYMES THEREFORE” (VALORBEC SOCIÉTÉ EN COMMANDITE, priority 2014, published 2016)

B1: EX98: CYP719 from Stylophorum diphyllum, SEQ ID NO: 377 (protein, listed as Stylophorum diphyllum)
chain: MEESFWLVTATVVVVFVIAKLQFRKSSSISTMEWPAGPKTLPIIGNLHQLGGAALHVVLANLAKAYGSVMTIWVGSWRPMIVISDFDKAWEVLVNKSSDYSARSLPEITRIISANWKNIMTSDSGPFWQNLRKGLQSGALSPHNVMSQYQLQERDMQNLIKTMRVEAFKNNGRIKPLDHLKQETVRLLSRLIFGQDFNDEKLVVGMHHALDDLVRISGYASLADAFKFAENLPSHKKSIREVHELKKRVENLVRPHIVSNPPTNTYLNFLQSQNFSEDLIISAILEVYDLGVDSTASTTVWALTFLVRELKVQEKLYQEIKNLTGGRSTVKVEEVSKMPYLQAVMKETMRMKPIAPMAIPHTAARETSLMGKKIDKGTVVMVNLYAIHHNPNIFPEPYKFMPERFLHGEEQNGGNIKEMEQSLLPFSAGMRICAGMELGKLQLGFALASLVNAFKWECAVDGKLPDMSEDHCFILLMKNPLEAKITPRTH
B2: EX50: CYP719 from Coptis japonica, Q948Y1.1, SEQ ID NO: 329 (protein, listed as Coptis japonica)
chain: MEMNPLLVCATVAIVFATTTIIRILFSSSSLPQMKWPSGPRKLPIIGNLHQLGDDVLHVALAKLAKVHGSVMTIWIGSWRPVIVISDIEKAWEVLVNKSADYGARDMPEITKIASASWHTISTSDAGSFWQNVRKGLQSGAMGPLNVAAQNQYQERDMKRLIKAMSDEAANNNGIVKPLDHIKKNTVRLLTRLIFGQAFDDNKFIESMHYEIEDIIRISGYARLAEAFYYAKYLPSHKKAEREAFLVKCRVEELVRPLLSSKPPTNSYLYFLLSQNFEEEVIIFCIFELYLLGVDSTSSTTTWALAYLIREQGAQEKLYQDIRMTLGDVDLVKIEDVNKLKYLQGVVKETMRMKPIAPLAIPHKTAKETTLMGTKVAKGTRIMVNLYALHHNQNIWPDPYKFMPERFLEGETGTAYNKAMEQSFLPFSAGMRICAGMDLGKLQFAFALANLVNAFKWSCVEEGKLPDMGEELSFVLLMKTPLEARIAGRNV
B3: EX60: CYP719 from Eschscholzia californica, BAG75114.1, SEQ ID NO: 339 (protein, listed as Eschscholzia californica)
chain: MEEMKFLMMNNPWVLTATFTTLLISIFLFVTRKTSNTEWPNGPKTLPIIGNMHLLGGTKALQVILHNLAKVYGGVMTIWIGSWRPVIIVSDIERAWEVLVNKSSDYSARELPEIIKYNAANFRTIATCDSGPHWSNLRKGLQNVALSPHNLAAQFQFQEKDITKMIQNLEVEAKNNNGIVQPLDHLKKATIRLISRLIFGQDFDEDTYVEKLHHTIDELIRMSGYAQLAEAFYYARYLPNHKKAVNHAAKTKQIVTHLMRPFLSLNPPTNSYLHFLQSQNYDEELIIFSIFEVYLLGVDSTSSTTAWALAYLVREPNVQETLYQELDNFAKQNDRKILKVEDINKLQYLQAVTKETMRMKPIAPLAIPHKASRDTTLMGKKVEKGTKVMVNLHALHHNENVFNDPYKFMPERFLKSYQGAKAKAMEQSYLPFSAGMRICGGMEVGKLQFGFALANLAYAFKWSCAVNGVLPDMSDELGFVLFMKTPLEARIVRRN
B4: EX72: CYP719 from Nandina domestica, SEQ ID NO: 351 (protein, listed as Nandina domestica)
chain: MDPMSLWAAIAIVLVMTLLVLLQTRTKSLPSSSTQWPTGPKTLPIIGNLHQLEGDVFHVALAKLAKMHGDIMTIWIGSWRPVIVISDYDKAWEVLVNKSSDYSARDMPEITKIASAGWRTISLSSSGPFWHTLRKGLQNGPFGPLNVSAQILSQERDMRRMIRDMQEEADINGGIVKPLGHLKKATVGLLTRLIFGQNFDDDSFIESIHHETEELIRISGYARLAEAFSYAKYLPSHRRAVKESYECKHRVEELVKPLLSSNPPKNSYLNFLQSQDYPEEVIIFCIFEIYLLGVDSTSSTTTWALAFLIHEPAVQEKLYQEVKCITNGDGGLVKAGDLSKFQYLQAVMKETMRMKPIAPLAIPHTTSKDTTLMGTKVAKGTRIMVNLYALHHNPNIWSEPFKFMPERFLQEQFNGVGGDANVKAIEQSFLPFSAGMRICAGMDLGKLQFSFALANLVNAFKWTTVADGKFPDMNEELSFVLLMKTPLEARIVPRKP

How the values were obtained:
Type in all cases: cell-based, Saccharomyces cerevisiae
nandinine = assay: CYP719 Ring B closure of nandinine to stylopine in GC1333
Procedure: (§1) FIG. 11A-B: showing conversion of (S)-cheilanthifoline (FIG. 11A) or (S)-nandinine (FIG. 11B) to (S)-stylopine by purchased CYP719s. Plasmids harboring CYP719s were transformed into GC1333 containing an integrated PsCPR. Strains were incubated with the appropriate BIA overnight, and then total BIAs were extracted and total molar ratios were compared. PsSPSΔN was used as a control.
(§2) The 10 CYP719s with 95% activity on Ring A of scoulerine and the 10 CYP719s with activity on Ring B of scoulerine were tested for activity on cheilanthifoline and nandinine, respectively, in order to generate a branched stylopine synthesis pathway. […] CYP719s PsCFS and EX101, capable of converting >98% of scoulerine to cheilanthifoline and nandinine, respectively, were incubated with scoulerine. After 16 h, cells were pelleted and the supernatant fraction was collected. The supernatant was then applied to fresh yeast strains in order to supplement them with either TE containing nandinine or cheilanthifoline as necessary.

cheilanthifoline = assay: CYP719 Ring A closure of cheilanthifoline to stylopine in GC1333
Procedure: as §1, §2

scoulerine = assay: CYP719s in GC1316 (integrated PsCPR and PsCFS) supplemented with scoulerine; conditions: CYP719 expressed with PsCFS and PsCPR
Description: Plasmids harboring CYP719s were transformed into either GC1333 containing an integrated PsCPR (FIG. 10A) or GC1316 containing an integrated PsCPR and an integrated PsCFS (FIG. 10B). Strain GC1333, harboring PsCPR integrated into the chromosome, was transformed with pBOT plasmids, with GFP removed, harboring individual CYP719s (CYP719 EX41-105). (See Tables 7-8 below presenting the nature and activity of these CYP719s).
Plasmids harboring individual CYP719s were transformed into strain GC1316, which harbored PsCPR and PsCFS integrated into the genome. Strains were supplemented with scoulerine and after 16 hours total BIAs were extracted and the molar ratio was compared (FIG. 10B). The four possible BIAs that could be extracted were scoulerine, the single Ring A product nandinine, the single Ring B product cheilanthifoline, and the double Ring A, Ring B product stylopine.

Molecule	conversion of nandinine to stylopine (nandinine)	conversion of cheilanthifoline to stylopine (cheilanthifoline)	residual cheilanthifoline (scoulerine)
B1	> 98%	–	–
B2	–	> 98%	residual cheilanthifoline was detected
B3	–	–	residual cheilanthifoline was detected
B4	–	–	residual cheilanthifoline was detected
